Data on three sequences can be found in PMC4448153.

In the data set the target is T1, RamB-His (Corynebacterium glutamicum ATCC 13032?) (UniProt Q8NTD8).
T1 sequence: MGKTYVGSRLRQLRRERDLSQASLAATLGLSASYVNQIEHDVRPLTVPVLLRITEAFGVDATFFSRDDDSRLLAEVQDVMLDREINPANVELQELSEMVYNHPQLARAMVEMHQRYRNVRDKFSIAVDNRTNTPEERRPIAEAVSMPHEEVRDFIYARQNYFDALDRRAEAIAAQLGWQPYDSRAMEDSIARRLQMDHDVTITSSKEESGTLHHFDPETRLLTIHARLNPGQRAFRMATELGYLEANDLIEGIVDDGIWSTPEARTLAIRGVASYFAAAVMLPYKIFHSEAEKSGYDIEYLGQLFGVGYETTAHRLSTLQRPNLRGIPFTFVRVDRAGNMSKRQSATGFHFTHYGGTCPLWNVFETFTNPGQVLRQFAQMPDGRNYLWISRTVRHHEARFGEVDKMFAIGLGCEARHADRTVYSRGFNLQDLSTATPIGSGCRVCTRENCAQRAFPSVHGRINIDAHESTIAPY
The data set is described as follows: EMSA. Particulars: EMSA: 100 mM Tris/HCl pH 7.5, 20% glycerol, 100 mM KCl, 20 mM MgCl2, 1 mM EDTA, 30 min room temperature, DNA 5-61 nM; pull-down bead equilibration: 20 mM ….
As to “CGTCTAGATAAGACCTTGAAATGACTAACTCAGGCTAATTTGGTTAACAACTTATGAACTCTGGGCTATCGTTCGGCAAATTCTGCCACTACCCACATCTCACTCGTAACATTTGGAGACTCTAATCACAAAAATCGGCAATTTTCGACCCCTGCGGAACGAAAATCACCGATTCTTATTATTCTCACAGGTTTTTAGCAAGTCTCTTTTTTACTCGAGGGG (double strand) [RF4]”, the binding entry is listed as “binds more weakly”. In the case of “CCCGATGTGGGTAGTGGCAGAATTTGCCGAACGATAGCCCAGAGTTCATAAGTTGTTAACCAAATTAGCCTGAGTTAGTCATTTCAAGGTCTTAGGTTTTTAAGTCGTGAGCAATCCGGAGGGAAACCG (double strand) [RcFc]” it was “binds”; in that of “CGTCTAGATGCGGACTGCTGGGAAGATGCACCTTCAGCAACGAGCTGACCGGTAACACCGGAAAGGCCCTCAATGGATGCAGCATCGGAAGAACCGGTGGAAGCTGCAGATGAGGAGGTGGAATCAGACTCATTGGAGTCGGAGCAAGCTACAAGAGCGAAGGAGCCTGCAGTAACTGCGCCCACAAGGGCGATGGAGCGCTTAAGAGTGAGGTTCACGGGGAAGCCTTTCCGGTTTAAGTGAAGACATCGTCTGAGCAGATCCTGTAGGCGGGCCTCGAGGGG (double strand) [R3F0]”, “no binding”.
